One series deals with rat β-cell line RIN-m5F. Briefly: In vitro insulin secretion, static incubation of RIN-m5F cells. The class given is cell-based. Particulars: for EC50: read-out: In vitro insulin secretion in rat β-cell line RIN-m5F, EC50, 2 mM glucose, 30 min incubation, rat insulin ELISA, mean ± SEM of three experiments.
Series [1] can be described thus: Pharmacokinetics after subcutaneous injection in rats. The class given is in vivo, Sprague-Dawley rats. The note with it: 1 mg/kg s.c.; for Cmax / tmax: plasma ELISA; for tmax: non-compartmental.

No end group written: not given here. mPEG 20 kDa = linear 20 kDa mPEG attached to the Gln side chain; mPEG 5 kDa = linear 5 kDa mPEG attached to the Gln side chain

The record followed here is PMC4167179 (Results in Pharma Sciences, 2012).

The term EC50 denotes the midpoint of the concentration-response curve. Regarding “GLP-1-(7-36)-(Q23N–A30Q)-amide-Q^30-PEG 20 kDa (HAEGTFTSDVSSYLEGNAAKEFIQ(mPEG 20 kDa)WLVKGR-NH2; UniProt P01275 98-127, looked up, variant Q23N A30Q)”, the “In vitro insulin secretion, Relative potency” value with rat β-cell line RIN-m5F (1/(EC50 analog/EC50 GLP-1(7-36)-amide)) stood at 0.017. In addition, the EC50 in the series on rat β-cell line RIN-m5F is 35 ± 3 nM.
As for “GLP-1-(7-36)-(T11Q–Q23N)-amide-Q^11-PEG 5 kDa (HAEGQ(mPEG 5 kDa)FTSDVSSYLEGNAAKEFIAWLVKGR-NH2; UniProt P01275 98-127, looked up, variant T11Q Q23N)”, the EC50 with rat β-cell line RIN-m5F stood at 106.3 ± 0.5 nM.
Usually Cmax stands for the maximum level reached in the sampled fluid or tissue. In series [1] (elimination phase of log transformed curve, four animals), “GLP-1-(7-36)-amide-Q^23-PEG 5 kDa: GLP-1(7-36)-amide monopegylated at glutamine 23 with linear 5 kDa mPEG-NH2” gave a t1/2 of 1.7 h. In series [1] (four animals), this substance showed a Cmax of 160.4 ng/mL and a tmax of 3 h.
Consider “GLP-1-(7-36)-amide-Q^23-PEG 20 kDa: GLP-1(7-36)-amide monopegylated at glutamine 23 with linear 20 kDa mPEG-NH2”, for which, in the series with rat β-cell line RIN-m5F, the EC50 worked out at 34.4 ± 0.8 nM. Moreover, in series [1] (0→96 h, linear trapezoidal rule, four animals), the “AUC (AUC96 h)” value is given as 16,799.8 ng/ml×h. Moreover, the “plasma concentration after 96 h” value in series [1] (96 h) is given as “around 5 ng/ml”. The substance also had a Cmax in series [1] (four animals, 1 mg/kg) of 640 ng/mL. Besides, the tmax in series [1] (four animals) is given as 9 h.
With “GLP-1-(7-36)-amide-Q^23-PEG 50 kDa: GLP-1(7-36)-amide monopegylated at glutamine 23 with branched 50 kDa mPEG-NH2”, in the series on rat β-cell line RIN-m5F, the EC50 turned out to be 1870 ± 1 nM.
